Consider 2 molecules from patent publication US20070032406A1 (UNIVERSITY OF ROCHESTER, published 2007).

Assay [1] has as its target NgR2 (full-length, N-terminally myc-tagged rat NgR2) (rat) (UniProt Q80WD1). Put plainly: estimated from the 5 fold comparison on COS-7 cells and the literature Kd of MAG-Fc/NgR.
The target is the same in assay [2]. As to the kind of experiment: MAG-Fc binding to transfected COS-7 cells, direct comparison with NgR.
The target is the same in assay [3]. As to the kind of experiment: Scatchard plot analysis, MAG-Fc on NgR2 expressing COS-7 cells.
Assay [4] shares this target. As to the kind of experiment: MAG-Fc binding to NgR2 expressing COS-7 cells.
Assay [5] concerns the target T1, NgR1 (Nogo receptor; full-length, N-terminally myc-tagged rat NgR) (rat, UniProt Q99M75 26-447).
T1 construct: GPI-linked; Expressed on COS-7 cells, in HEK293T cells (co-IP) and by adenovirus in rat DRG neurons; the tag is stated only for the COS-7 construct; also called myc-NgR[Pro26-Cys473]
T1 sequence: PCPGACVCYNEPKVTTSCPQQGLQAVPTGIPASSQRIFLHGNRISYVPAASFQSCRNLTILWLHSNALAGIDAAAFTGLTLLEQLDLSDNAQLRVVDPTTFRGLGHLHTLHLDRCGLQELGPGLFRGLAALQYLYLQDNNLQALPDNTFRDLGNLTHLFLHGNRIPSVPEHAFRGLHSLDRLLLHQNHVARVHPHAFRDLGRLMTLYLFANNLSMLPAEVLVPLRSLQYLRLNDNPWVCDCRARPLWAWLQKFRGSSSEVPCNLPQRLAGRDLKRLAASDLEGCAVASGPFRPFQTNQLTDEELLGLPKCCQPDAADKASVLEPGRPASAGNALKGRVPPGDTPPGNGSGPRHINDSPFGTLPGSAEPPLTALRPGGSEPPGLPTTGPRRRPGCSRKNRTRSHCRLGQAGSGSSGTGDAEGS
Put plainly: AP-ligand binding to transfected COS-7 cells.

For assay [6], the target named is T2, NgR2 (full-length, N-terminally myc-tagged rat NgR2) (rat, UniProt Q80WD1 30-390).
T2 construct: also called myc-NgR2[Ser30-Leu420]
T2 sequence: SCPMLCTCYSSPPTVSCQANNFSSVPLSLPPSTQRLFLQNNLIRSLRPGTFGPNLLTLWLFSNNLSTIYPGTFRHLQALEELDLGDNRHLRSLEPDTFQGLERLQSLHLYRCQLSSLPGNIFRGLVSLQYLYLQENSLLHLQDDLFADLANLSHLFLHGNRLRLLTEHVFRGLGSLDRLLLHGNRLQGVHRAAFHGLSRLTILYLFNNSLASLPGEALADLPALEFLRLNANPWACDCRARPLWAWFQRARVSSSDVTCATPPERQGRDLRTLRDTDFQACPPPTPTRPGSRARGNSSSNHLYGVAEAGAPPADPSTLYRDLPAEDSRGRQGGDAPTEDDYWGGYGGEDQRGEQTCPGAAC
As to the kind of experiment: AP-ligand binding to transfected COS-7 cells.

Assay [7] addresses T3, NgR3 (full-length, N-terminally myc-tagged rat NgR3) (rat, UniProt Q80WD0 24-424).
T3 construct: also called myc-NgR3[Gly24-Arg445]
T3 sequence: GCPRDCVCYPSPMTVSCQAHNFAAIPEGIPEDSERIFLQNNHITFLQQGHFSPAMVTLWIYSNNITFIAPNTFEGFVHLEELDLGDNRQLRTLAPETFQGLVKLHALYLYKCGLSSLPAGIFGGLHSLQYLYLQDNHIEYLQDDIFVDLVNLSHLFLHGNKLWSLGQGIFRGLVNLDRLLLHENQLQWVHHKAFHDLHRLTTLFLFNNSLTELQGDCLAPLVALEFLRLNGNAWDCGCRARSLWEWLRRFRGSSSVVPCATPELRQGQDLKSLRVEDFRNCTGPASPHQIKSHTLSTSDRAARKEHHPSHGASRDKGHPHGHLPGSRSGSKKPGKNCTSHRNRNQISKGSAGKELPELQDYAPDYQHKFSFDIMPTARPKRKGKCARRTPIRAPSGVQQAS
Put plainly: AP-ligand binding to transfected COS-7 cells.

Take “MAG-Fc (MAG ectodomain fused to the Fc fragment of human immunoglobulin) (Fc fusion)”: the dissociation constant Kd in assay [1] was 1 to 2 nM; in assay [3] it was 2 nM. The molecule also yielded a fold tighter binding than to NgR in assay [2] of 5 fold. Besides, in assay [4], the concentration at which binding saturates fell in the range of 5 to 10 nM.

B1: AP-sNgR^C-term (LRRCT domain together with the unique domain of NgR, residues 261-445, AP fusion) (receptor)
chain: PWVCDCRARPLWAWLQKFRGSSSEVPCNLPQRLAGRDLKRLAASDLEGCAVASGPFRPFQTNQLTDEELLGLPKCCQPDAADKASVLEPGRPASAGNALKGRVPPGDTPPGNGSGPRHINDSPFGTLPGSAEPPLTALRPGGSEPPGLPTTGPRRRPGCSRKNRTRSHCRLGQAGSGSSGTGDAE
notes: Soluble, made in HEK293T cells; also called AP-sNgRCTu [Pro261-Glu445]; AP-NgR^C-term; not shown: alkaline phosphatase (AP) tag
B1: the binding result in assay [5], in assay [6] and in assay [7] was “no binding” throughout.
